For this experiment, the system named is ob/ob mice. As to the kind of experiment: Insulin tolerance test in ob/ob mice administered ZAG for 3 days. Format: in vivo, mouse. The procedure: An insulin tolerance test was also carried out in ob/ob mice administered ZAG for 3 days (FIG. 23). Animals were administered two doses of insulin (10 and 20 U/kg) by i.p. injection and blood glucose was measured over the next 60 min. […] The glucose disappearance curve for 20 U/kg+PBS was almost identical to 10 U/kg+ZAG, so at this dose level ZAG is reducing the requirement for insulin by 50%, but this can be overcome by giving more insulin.

B1: ZAG: recombinant full length human zinc-α2-glycoprotein (SEQ ID NO: 1) secreted by transfected HEK293F cells; lipid mobilizing factor (protein, listed as Homo sapiens)
chain: QENQDGRYSLTYIYTGLSKHVEDVPAFQALGSLNDLQFFRYNSKDRKSQPMGLWRQVEGMEDWKEDSQLQKAREDMETLKDIVEYYNDSNGSHVLQGRFGCEIENNRSSGAFWKYYYDGKDYIEFNKEIPAWVPFDPAAQITKQKWEAEPVYVQRAKAYLEEECPATLRKYLKYSKNILDRQDPPSVVVTSHQAPGEKKKLKCLAYDFYPGKIDVHWTRAGQVQEPELRGDVLHNGNGTYQSWVVVAVPPQDTAPYSCHVQHSSLAQPLVVPWEAS
Consider B1, for which the “reduction of the requirement for insulin” value (10 U/kg insulin+ZAG vs 20 U/kg+PBS) turned out to be 50%. For the same molecule, the sensitivity to insulin entry (insulin 10 U/kg i.p.) is given as “increased sensitivity to insulin”.

These data come from patent US10077295B2, “Glycoproteins having lipid mobilizing properties and therapeutic uses thereof” (Aston University, priority 2010, dated 2018).
